Among the data in publication PMC9705548, “Altered tRNA processing is linked to a distinct and unusual La protein in Tetrahymena thermophila” are binding result and Kd values, retold here.

The target of one data set is T1, Mlp1 Q11A/Y14A (Tetrahymena thermophila, UniProt Q23RK6 1-340, Q11A;Y14A).
T1 sequence: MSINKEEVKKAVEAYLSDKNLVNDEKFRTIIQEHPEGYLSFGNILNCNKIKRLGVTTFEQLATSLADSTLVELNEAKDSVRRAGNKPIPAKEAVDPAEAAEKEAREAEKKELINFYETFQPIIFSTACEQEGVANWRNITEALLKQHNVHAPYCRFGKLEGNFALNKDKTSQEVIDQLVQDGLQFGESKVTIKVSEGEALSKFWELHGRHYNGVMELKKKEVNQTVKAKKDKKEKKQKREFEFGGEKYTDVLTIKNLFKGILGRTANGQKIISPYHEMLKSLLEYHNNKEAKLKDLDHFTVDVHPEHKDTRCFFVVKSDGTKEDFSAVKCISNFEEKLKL
Nature of the data set: EMSA; EMSA: 20 mM Tris-HCl pH 7.4, 100 mM KCl, 1 mM EDTA, 5 mM beta-mercaptoethanol, 10% glycerol; ~0.1 nM RNA refolded from 95 C; 30 min at 30 C; 8% native PAGE at 4 C. The following applies: protein: recombinant; tags: N-terminal 6xHis (pET28a).

For data set [1], the target named is T2, Mlp1 (Tetrahymena thermophila, UniProt Q23RK6 1-340).
T2 sequence: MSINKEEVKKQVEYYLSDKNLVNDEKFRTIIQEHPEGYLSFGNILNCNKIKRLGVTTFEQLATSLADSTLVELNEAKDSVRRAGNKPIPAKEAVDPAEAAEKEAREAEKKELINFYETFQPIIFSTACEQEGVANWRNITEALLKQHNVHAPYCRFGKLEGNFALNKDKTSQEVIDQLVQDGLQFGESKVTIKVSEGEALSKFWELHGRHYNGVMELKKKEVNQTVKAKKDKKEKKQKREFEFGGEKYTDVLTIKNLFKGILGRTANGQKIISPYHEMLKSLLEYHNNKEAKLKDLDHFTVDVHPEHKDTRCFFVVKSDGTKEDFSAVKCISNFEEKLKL
The data set is described as above. The following applies: protein: recombinant, tags: N-terminal 6xHis (pET28a).

Another data set addresses T3, Mlp1 1-250 (Tetrahymena thermophila, UniProt Q23RK6 1-250).
T3 sequence: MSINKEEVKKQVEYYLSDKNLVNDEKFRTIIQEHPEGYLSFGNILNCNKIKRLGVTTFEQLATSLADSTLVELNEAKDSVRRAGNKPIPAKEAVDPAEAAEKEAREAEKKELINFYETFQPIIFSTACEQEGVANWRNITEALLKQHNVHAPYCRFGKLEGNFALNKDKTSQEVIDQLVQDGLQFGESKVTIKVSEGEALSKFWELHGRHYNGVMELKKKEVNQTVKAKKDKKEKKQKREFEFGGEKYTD
The data set is described as above. The following applies: protein: recombinant; tags: N-terminal 6xHis (pET28a).

In data set [2] the target is T2, Mlp1. Description: competition; EMSA: 20 mM Tris-HCl pH 7.4, 100 mM KCl, 1 mM EDTA, 5 mM beta-mercaptoethanol, 10% glycerol; ~0.1 nM RNA refolded from 95 C; 30 min at 30 C; 8% native PAGE at 4 C. To be noted: protein: recombinant; tags: N-terminal 6xHis (pET28a); label: none.
The target in data set [3] is T2, Mlp1. Nature of the data set: EMSA; 20 mM Tris-HCl pH 7.4, 100 mM KCl, 1 mM EDTA, 5 mM beta-mercaptoethanol, 10% glycerol; ~0.1 nM RNA; 30 min at 30 C; 8% native PAGE at 4 C. To be noted: protein: recombinant, tags: N-terminal 6xHis (pET28a). (Mobility shift assays separate free from complexed probe on a gel.)
The target in the next data set is T4, hLa (Homo sapiens, UniProt P05455 1-408).
T4 sequence: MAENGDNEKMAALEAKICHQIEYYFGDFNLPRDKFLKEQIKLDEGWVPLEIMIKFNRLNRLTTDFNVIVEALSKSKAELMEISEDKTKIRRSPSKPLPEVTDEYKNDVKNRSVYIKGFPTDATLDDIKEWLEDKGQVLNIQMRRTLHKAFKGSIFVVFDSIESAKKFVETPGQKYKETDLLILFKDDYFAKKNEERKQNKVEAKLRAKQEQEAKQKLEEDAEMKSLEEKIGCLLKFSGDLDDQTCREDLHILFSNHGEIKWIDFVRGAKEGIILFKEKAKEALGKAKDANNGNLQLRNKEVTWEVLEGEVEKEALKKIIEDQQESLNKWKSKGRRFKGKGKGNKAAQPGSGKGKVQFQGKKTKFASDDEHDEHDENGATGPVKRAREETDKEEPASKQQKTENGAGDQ
Description: competition; EMSA: 20 mM Tris-HCl pH 7.4, 100 mM KCl, 1 mM EDTA, 5 mM beta-mercaptoethanol, 10% glycerol; ~0.1 nM RNA refolded from 95 C; 30 min at 30 C; 8% native PAGE at 4 C. To be noted: protein: recombinant; tags: 6xHis (encoded in reverse primer, pET28a); label: none.

A further data set addresses T5, Mlp1 95-250 (Tetrahymena thermophila, UniProt Q23RK6 95-250).
T5 sequence: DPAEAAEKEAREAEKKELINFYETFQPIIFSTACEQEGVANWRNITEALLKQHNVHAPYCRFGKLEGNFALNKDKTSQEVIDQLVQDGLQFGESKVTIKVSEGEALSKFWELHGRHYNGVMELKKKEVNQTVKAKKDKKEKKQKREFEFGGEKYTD
Nature of the data set: EMSA; EMSA: 20 mM Tris-HCl pH 7.4, 100 mM KCl, 1 mM EDTA, 5 mM beta-mercaptoethanol, 10% glycerol; ~0.1 nM RNA refolded from 95 C; 30 min at 30 C; 8% native PAGE at 4 C. To be noted: protein: recombinant; tags: N-terminal 6xHis (pET28a); label: 32P.

A further data set concerns the target T6, Mlp1 1-95 (Tetrahymena thermophila, UniProt Q23RK6 1-95).
T6 sequence: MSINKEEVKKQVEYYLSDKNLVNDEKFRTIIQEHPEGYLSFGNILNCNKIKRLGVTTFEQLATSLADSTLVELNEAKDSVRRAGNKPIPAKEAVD
The data set is described as above. To be noted: protein: recombinant; tags: N-terminal 6xHis (pET28a); label: 32P.

Setting [4] is: label: 32P-UTP body label, tRNA fold.

Take CUGCUGUUUU (ssRNA) [4U (CUGCUGUUUU-3'OH)]: the binding result with Mlp1 Q11A/Y14A is recorded as “no binding”; in the data set with Mlp1 [1], “binds”; with Mlp1 1-250, “binds”.

For the molecule CUGCUGUUUC (ssRNA) [U-1C], the binding result in the data set with Mlp1 [2] is reported as “binds”.

B1: mature tRNA GlnUUA (structured_RNA)
RNA: GGUUCCAUAGUAUAGUGGUUAGUACUGGGGACUUUAAAUCCCUUGACCUGGGUUCGAAUCCCAGUGGGACCU
A word on the Kd: it is the free concentration of one partner at which half of the binding sites on the other are occupied at equilibrium, for simple one-to-one binding. As for B1, the Kd with Mlp1 [3] (setting [4]) amounted to 801 ± 62 nM.

B2: pre-tRNA LeuAAG 5'-leader only (+5'PPP) (structured_RNA)
RNA: GAGCGAAGAUGAAGUGGCCGAGCGGUCUAAGGCGGUAGAUUAAGGCUCUAUUCCGAAAGGGCGCGAGUUCGAAUCUCGCCUUCAUCA
On to B2, for which the equilibrium dissociation constant (Kd) with Mlp1 [3] (tRNA fold) came to 714 ± 21 nM.

B3: pre-tRNA GlnUUA 5'-leader only (structured_RNA)
RNA: GCAUGUCCGGUUCCAUAGUAUAGUGGUUAGUACUGGGGACUUUAAAUCCCUUGACCUGGGUUCGAAUCCCAGUGGGACCU
Regarding B3, the Kd with Mlp1 [3] (label: 32P-UTP body label) was 804 ± 16 nM.

Take CUGCUGUCUU (ssRNA) [U-3C]: the binding result with Mlp1 [2] is on record as “binds”.

On to CUGCUGUUCU (ssRNA) [U-2C], for which, in the data set with Mlp1 [2], the binding result was “binds”.

B4: pre-tRNA LeuAAG 5' 3' (structured_RNA)
RNA: GAGCGAAGAUGAAGUGGCCGAGCGGUCUAAGGCGGUAGAUUAAGGCUCUAUUCCGAAAGGGCGCGAGUUCGAAUCUCGCCUUCAUCAGAUUUUU
Regarding B4, the equilibrium dissociation constant (Kd) with Mlp1 [3] (tRNA fold) was found to be 586 ± 15 nM.

B5: pre-tRNA GlnUUA 5' 3' (structured_RNA)
RNA: GCAUGUCCGGUUCCAUAGUAUAGUGGUUAGUACUGGGGACUUUAAAUCCCUUGACCUGGGUUCGAAUCCCAGUGGGACCUGCUUUUU
B5: in the data set with Mlp1 [3] (setting [4]), the Kd amounted to 687 ± 44 nM.

For CUGCUGCCCC (ssRNA) [4C], the binding result with hLa is “no binding”.

B6: pre-tRNA LeuAAG 3'-trailer only (structured_RNA)
RNA: GAUGAAGUGGCCGAGCGGUCUAAGGCGGUAGAUUAAGGCUCUAUUCCGAAAGGGCGCGAGUUCGAAUCUCGCCUUCAUCAGAUUUUU
As for B6, the dissociation constant (Kd) with Mlp1 [3] (label: 32P-UTP body label) was 658 ± 36 nM.

Regarding CUGCUGUUUU (ssRNA) [uridylate RNA of Supplementary Fig. S4b], the binding result with Mlp1 95-250 and with Mlp1 1-95 was “no binding” in each case.

B7: mature tRNA LeuAAG (structured_RNA)
RNA: GAUGAAGUGGCCGAGCGGUCUAAGGCGGUAGAUUAAGGCUCUAUUCCGAAAGGGCGCGAGUUCGAAUCUCGCCUUCAUCA
For B7, the equilibrium dissociation constant (Kd) in the data set with Mlp1 [3] (tRNA fold) came to 831 ± 33 nM.

Consider CCCCCCCCCC (ssRNA) [C10], for which the binding result with Mlp1 [1] (label: 32P) is given as “no binding”.

B8: pre-tRNA GlnUUA 3'-trailer only (structured_RNA)
RNA: GGUUCCAUAGUAUAGUGGUUAGUACUGGGGACUUUAAAUCCCUUGACCUGGGUUCGAAUCCCAGUGGGACCUGCUUUUU
In the case of B8, the Kd with Mlp1 [3] (label: 32P-UTP body label) worked out at 740 ± 40 nM.
